Results on two molecules are retold here after US20250066451A1 (SWEDISH ORPHAN BIOVITRUM AB PUBL, published 2025).

Test [1] concerns the target T1, Human IL-1R-I-Fc (Creative BioMart cat. no. IL1RI-771H) (human, UniProt P14778 18-332, limits assumed).
T1 construct: Bought protein; also called hIL-1R-I-Fc; hIL-1RI-Fc; not shown: Fc part of the bought fusion
T1 sequence (looked up): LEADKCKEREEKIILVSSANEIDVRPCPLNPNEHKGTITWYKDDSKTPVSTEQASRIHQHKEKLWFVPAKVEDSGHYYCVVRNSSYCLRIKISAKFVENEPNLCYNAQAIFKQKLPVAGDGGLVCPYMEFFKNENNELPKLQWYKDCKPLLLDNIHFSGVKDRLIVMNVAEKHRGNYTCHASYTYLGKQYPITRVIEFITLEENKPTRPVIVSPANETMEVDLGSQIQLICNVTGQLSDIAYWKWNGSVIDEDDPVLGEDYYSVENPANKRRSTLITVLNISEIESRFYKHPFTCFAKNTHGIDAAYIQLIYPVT
Kind of test: ELISA titration; Z-ABD periplasmic extract, hIL-1R-I-Fc 100-0.01 nM. A general note: ELISA stands for enzyme-linked immunosorbent assay.

The target of test [2] is T1, Human IL-1R-I-Fc (Creative BioMart cat. …). Kind of test: ELISA screening, periplasmic extract.
Method: ELISA screening of Z variants: The clones obtained after four cycles of selection were produced individually in 96-well plates and were screened for hIL-1R-I-Fc binding activity in ELISA using 1 nM target protein. In parallel, an ELISA to exclude Fc binding was run.

B1: Z12917 as Z-ABD fusion (periplasmic extract) (designed binder)
chain: AQHDEALEVDAKYAKEARQAYAEIYLLPNLTRRQYTAFIRKLLDDPSQSSELLSEAKKLNDSQAPKVDYVLAEAKVLANRELDKYGVSDYYKNLINNAKTVEGVKALIDEILAALPYVPG
For B1, the EC50 (as a rule, the concentration needed to bring the measured effect to its halfway point) in test [1] turned out to be 0.33 nM. That is a sub-nanomolar value.

B2: ABD001 (wild type albumin binding domain), periplasmic extract (other)
chain: LAEAKVLANRELDKYGVSDYYKNLINNAKTVEGVKALIDEILAALP
notes: Negative control; also called ABD negative control
On to B2, for which the binding result in test [2] was “no binding (tested: 1 nM hIL-1R-I-Fc)”.
